According to FireProtDB (doi:10.1016/j.neuropharm.2010.07.001):
“And” between values parts separate entries of the source, which are not always exact repeats. Identical values can stand only once.

B1: Adenosine receptor A2a, P29274 (parent)
chain: MPIMGSSVYITVELAIAVLAILGNVLVCWAVWLNSNLQNVTNYFVVSLAAADIAVGVLAIPFAITISTGFCAACHGCLFIACFVLVLTQSSIFSLLAIAIDRYIAIRIPLRYNGLVTGTRAKGIIAICWVLSFAIGLTPMLGWNNCGQPKEGKNHSQGCGEGQVACLFEDVVPMNYMVYFNFFACVLVPLLLMLGVYLRIFLAARRQLKQMESQPLPGERARSTLQKEVHAAKSLAIIVGLFALCWLPLHIINCFTFFCPDCSHAPLWLMYLAIVLSHTNSVVNPFIYAYRIREFRQTFRKIIRSHVLRQQEPFKAAGTSARVLAAHGSDGEQVSLRLNGHPPGVWANGSAPHPERRPNGYALGLVSGGSAQESQGNTGLPDVELLSHELKGVCPEPPGLDDPLAQDGAGVS

Variants of: B1
Settings: Homo sapiens; pH 7.5; Thermal; Tris-HCl 50 mM; NaCl 250 mM; structure 5NM2; whole UniProt chain shown

Row | Variant | change of melting temperature, mutant - wild type (higher = more stable)
1 | MPIMGSSVYITVELAIAVLAILGNVLVCWAVWLNSNLQNVTNYFVVSLAAADILVGVLAIPFAITISTGFCAACHGCLFIACFVLVLAQSSIFSLLAIAIDRYIAIRIPLRYNGLVTGTRAAGIIAICWVLSFAIGLTPMLGWNNCGQPKEGKNHSQGCGEGQVACLFEDVVPMNYMVYFNFFACVLVPLLLMLGVYLRIFLAARRQLKQMESQPLPGERARSTLQKEVHAAKSLAIIAGLFALCWLPLHIINCFTFFCPDCSHAPLWLMYLAIVLSHTNSVVNPFIYAYRIREFRQTFRKIIRSHVLRQQEPFKAAGTSARVLAAHGSDGEQVSLRLNGHPPGVWANGSAPHPERRPNGYALGLVSGGSAQESQGNTGLPDVELLSHELKGVCPEPPGLDDPLAQDGAGVS [A54L T88A V239A K122A] | 12 °C and 10 °C and 9 °C
